Reference: the RNAGym collection of RNA variant scans (doi:10.7554/elife.80360)

B1: HDV Ribozyme (parent)
chain: GGCCGGCAUGGUCCCAGCCUCCUCGCUGGCGCCGGCUGGGCAACAUUCCGAGGGGACCGUCCCCUCGGUAAUGGCGAAUGGGACCCA

Variants of: B1
Test: self-cleavage, relative activity (ratio to wild type); higher = more cleavage; co-transcriptional

Point of comparison: GGCCGGCAUGGUCCCAGCCUCCUCGCUGGCGCCGGCUGGGCAACAUUCCGAGGGGACCGUCCCGUCGGUAAUGGCGAUUGGGACCCA [C64G A78U], self-cleavage 0.18. Against it:
- GGCCGGCAUGGUCCCAGCCUCCUGGCUGGCGCCGGCUGGGCAACAUUCCGAGGGGACCGUCCCCUCGGUAACGGCGAAUGGGACCCA [C24G U72C] — lower, 0.111
- GGCCGGCAUGGUCCCAGCCUCCCCACUGGCGCCGGCUGGGCAACAUUCCGAGGGGACCGUCCCCUCGGUAAUGGCGAAUGGGACCCA [U23C G25A] — lower, 0.101
- GGCCGGCAUGGUCCCACCCUCCUCGCUGGCGCCGGCUGGGCAACAUUCCGAGGGGACCGUCCCCCCGGUAAUGGCGAAUGGGACCCA [G17C U65C] — higher, 0.529
- GGCCGGCAUGGUCCCAGCCUCCCCGCUGGCGCCGGCUGGGCAACAAUCCGAGGGGACCGUCCCCUCGGUAAUGGCGAAUGGGACCCA [U23C U46A] — higher, 0.538
- GUCCGGCAUGGUCCCAUCCUCCUCGCUGGCGCCGGCUGGGCAACAUUCCGAGGGGACCGUCCCCUCGGUAAUGGCGAAUGGGACCCA [G2U G17U] — lower, 0.0366
- GGCCGGCAUGGUCCCAGCCUCCUCGCUGGCGCCGGCUGGGCAACAUUCCGAGGGGACCGUCCCCUCGGAAAUGGCGAACGGGACCCA [U69A U79C] — higher, 0.499
- CGCCGGCUUGGUCCCAGCCUCCUCGCUGGCGCCGGCUGGGCAACAUUCCGAGGGGACCGUCCCCUCGGUAAUGGCGAAUGGGACCCA [G1C A8U] — lower, 0.0978
- AGCCGGCAUGGUCCCAGCCUCCUCGCUGGCGCCGGCUGGGCAACAUUCCGAGGGGACCGUCCCCUCGGUAAUGCCGAAUGGGACCCA [G1A G74C] — lower, 0
- GGCCGGCAUGGUCCCAGCCUCCUCGCUGGCGCCGGCUGGGCAACAUUCCGAGGGGACCGUCCCCUCGGUAAUGGCGAAUUGGACCUA [G80U C86U] — higher, 0.281
- GGCCGGUAUGGUCCCAGCCUCCUCGCUGGCGCCGGCUGGGCAACAUUCCGAGGGGACCGUCCCCUCGGUAAUGGCGAAUGGGACCCA [C7U] — higher, 0.86
- GGCCGGCAUGGUCCCAGCCUCCUCGCUGGCGCCGGCUGGGUAACAUUCCGAGGCGACCGUCCCCUCGGUAAUGGCGAAUGGGACCCA [C41U G54C] — higher, 0.63
- GGCCGGCAUGGUCCCAGCCUCCUCGCUGGCGCCGGCUGGGCAACAUUCCGAGGGGAACGUCCCCUCGGUAAUGGCGAAUGUGACCCA [C57A G81U] — higher, 0.397
- GGCCGGCAUGGUCCCAGCCUCCUCGCUGGCGCCGGCCGGGCAACAUUCCGAGGGGACCGUCCCCUCGGUAAUGGCGAAUGAGACCCA [U37C G81A] — higher, 0.283
- GGCCGGCAUUGUCCCAGCCUCCUCGCUGGCGCCGGCUGGGCAACAUUUCGAGGGGACCGUCCCCUCGGUAAUGGCGAAUGGGACCCA [G10U C48U] — higher, 0.782
- GGCCGGCAUGGUCCCAGCCUCCUCGCUCGCGCCGGCUGGGCAACAUUCCGAUGGGACCGUCCCCUCGGUAAUGGCGAAUGGGACCCA [G28C G52U] — lower, 0.0831
- GGACGGCAUGGUCCCAGCCUUCUCGCUGGCGCCGGCUGGGCAACAUUCCGAGGGGACCGUCCCCUCGGUAAUGGCGAAUGGGACCCA [C3A C21U] — lower, 0.0314
- GGCAGGCAUGGUCCCAGCAUCCUCGCUGGCGCCGGCUGGGCAACAUUCCGAGGGGACCGUCCCCUCGGUAAUGGCGAAUGGGACCCA [C4A C19A] — lower, 0.0386
- GGCCGGCAUGGUCCCAGCCUCCUCGCUGGCGCCGGCUGGGCAACAUUCCGAGGUGACCGUCCCCUCGGUAAAGGCGAAUGGGACCCA [G54U U72A] — higher, 0.614
- GGCCGGCAUGGUCCCAGCCUCCUCGCUGGCGCCGGCUGGGCAACAUUCCGAGGGGACCGUCCACUCGGUAACGGCGAAUGGGACCCA [C63A U72C] — higher, 0.532
- GGCCGGCAUGGUCCCAGCCUCCUCGCUGGCGCCGGCUGGGCAACAUUCCGAGGGGACCGUCACCUCGGUAAUGGCGUAUGGGACCCA [C62A A77U] — higher, 0.45
- GGCCGGCAUGGUCCCAGCCUCCUCGCUGUCGCCGGCUGGGCAACAUUCCGAGGGGACCGUCCCCUCGGUAAUAGCGAAUGGGACCCA [G29U G73A] — lower, 0.0898
- GGCCGUCAUGGUCCCAGCUUCCUCGCUGGCGCCGGCUGGGCAACAUUCCGAGGGGACCGUCCCCUCGGUAAUGGCGAAUGGGACCCA [G6U C19U] — lower, 0.0489
- GGCCGGCAUGGUCCCGGCCUCCACGCUGGCGCCGGCUGGGCAACAUUCCGAGGGGACCGUCCCCUCGGUAAUGGCGAAUGGGACCCA [A16G U23A] — higher, 1.11
- GGCCGGCAUGGUCCCAGCCUCCUCGCUGGCGCCGGCCGGGCAACAUUCCGAGGGGACCGUCCCCUCGGUAUUGGCGAAUGGGACCCA [U37C A71U] — higher, 0.807
- GGCCGGCAUGGUCCCAGCCUCCUCGCUGGCGCGGGCUGGGCAACAUUCCGAGGGGACCGUCCCCUCGGUAAUGGCGAAUGGGUCCCA [C33G A83U] — lower, 0.162
- GGACGGCAUGGUCCCAGCAUCCUCGCUGGCGCCGGCUGGGCAACAUUCCGAGGGGACCGUCCCCUCGGUAAUGGCGAAUGGGACCCA [C3A C19A] — lower, 0.0199
- GCCCGGCAUGGUCCCAGCCUCCUCGCUGGCGCCGCCUGGGCAACAUUCCGAGGGGACCGUCCCCUCGGUAAUGGCGAAUGGGACCCA [G2C G35C] — lower, 0.124
- GGCCGGCAUGGUCCCAGCCUCCUCGCUGGCGCCUGCUGGGCAACAUUCCGAGGGGACCGUCCCCCCGGUAAUGGCGAAUGGGACCCA [G34U U65C] — higher, 0.197
- GGCCGGCAUGGUCCUAGCCUCCUCGCUGGUGCCGGCUGGGCAACAUUCCGAGGGGACCGUCCCCUCGGUAAUGGCGAAUGGGACCCA [C15U C30U] — higher, 0.554
- CGCCGGCAUGGUCCCAGCCUCCUCGCUGGCGCCGGCUGGGCAACAUUCCGAGGGGACCGUCCCCUCGGUAAUGGCGAAUGGGACACA [G1C C85A] — lower, 0.161
- GGCCGGCAUGGUCCCAGCCUCCUCGCUGGCGCCGGCUUGGCAACAUUCGGAGGGGACCGUCCCCUCGGUAAUGGCGAAUGGGACCCA [G38U C49G] — lower, 0.0739
- GGCCGGCAUGGUCCCAGCCUCCUCGCUGGCGCCGGCUGGGCAACUUUCCGAGGGGACCGUCCCCUCGGUAAUGGCGAAUGGGACCAA [A45U C86A] — higher, 0.77
- GGCCGGCAUGGUCCCAGCCUCCUCGCUGGCGUCGGCUGGGCAACAUUCCGAGGGGACCUUCCCCUCGGUAAUGGCGAAUGGGACCCA [C32U G59U] — higher, 0.795
- GGCCGGCAUGGUCCCAGCCUCCGCGCUGGCGCCGGCUGGGCAACAUUCCGAGGGGACCGUCCCCUCGGUAAUGGCGAAUGGGAGCCA [U23G C84G] — higher, 0.388
- GGCCGGCAUGGUCCCAGCCUCCUCGCUUGCGCCGGCUGGGCAACAUUCCGAGGGGACCGUCCCCUCGGUAAUGGCGAAUGGGACGCA [G28U C85G] — lower, 0.108
- GGCCGGCAUGGUCCCAGGCUCCUCGCUGGCGCCGGCUGGGCAACAUUCCGAGGGGACCGUCCCCUCGGUAAUGCCGAAUGGGACCCA [C18G G74C] — lower, 0.142
- GGCCGGCAUGGUGCCAGCCUCCUCGCUGGCGCCGGCUGGGCAACAAUCCGAGGGGACCGUCCCCUCGGUAAUGGCGAAUGGGACCCA [C13G U46A] — lower, 0.0615
- GGCCGGCAUGGUCCCAGCCUCCCCGCUGGCGCCGGCUGGGCAACAUUCCGAGGGGACCGUCCCCUGGGUAAUGGCGAAUGGGACCCA [U23C C66G] — higher, 0.923
- GGCCGGCAUGGUCCCAGCCUCCUCGCUGGCGCCGGCUGGGCAACAUUCCGUGGGGACCGUCCCCUCGGUAAUGGCGAAUGGGACCAA [A51U C86A] — higher, 0.848
- GGCCAGCAUGGUCCCAGCCUCCUCGCUGGCGCCGGCUGGGCAACAUUCCGAGGGGACCGUCCCCUCGGUAAUGGCGAAUGGGACCUA [G5A C86U] — higher, 0.396
- GGCCGGCAUGGUCCCAGCCUCCUCGCUGGCGCCGGCUGGGCAACAUUCCCAGGGGACCGUCCCCUCGGUAAUGGUGAAUGGGACCCA [G50C C75U] — lower, 0.162
- GUCCGGCAUGGUCCCAGCCUCCUCGCUGGCGCCGGCUGGGCAACAUUCCGACGGGACCGUCCCCUCGGUAAUGGCGAAUGGGACCCA [G2U G52C] — lower, 0.0339
- GGCCGGCAUGGUCCCAGCCUCCUCGCUGGCGCCGGCUGGGCAACACUCCGAGGGGACCGUCCCCUCGGUAAUGGGGAAUGGGACCCA [U46C C75G] — higher, 0.469
- GGCCGGCAUGGUCCCAGCCUCCUCGCUGGCGCCGGCUGAGCAACAUUCCGAGGGGACCGUCCCCUCGGUAAUGGCGAAUGUGACCCA [G39A G81U] — lower, 0.147
- GGCCGGCAUGGUCCCAGCCUCCUCGCUGGCGGCGGCUGGGCAACAUUCCGAGGGGACCGUCCCCUCGGUAAUGGCCAAUGGGACCCA [C32G G76C] — higher, 0.224
- GGCCGGCAUGGUCCCAGCCUCCUCGCUGGCGCUGGCUGGGCAACAUUCCGAGGGGACCGUCCCCUCCGUAAUGGCGAAUGGGACCCA [C33U G67C] — higher, 0.771
- GGCCGGCAUGGUCCCAGCCUCCCCGCUGGCGCCGGCUGGGCAACAUUCCGAGGGGACCGUCCCCUCGGUCAUGGCGAAUGGGACCCA [U23C A70C] — higher, 0.939
- GGCCGGCAUGGUCCCAGCCUCCUCGCUGGCGCCGGCCGGGCAACAUUCCGAGGGGACCGUCCCCUCGCUAAUGGCGAAUGGGACCCA [U37C G68C] — higher, 0.682
- GGCCGGCAUGGUCCCAGCCUCCUCGCUGGCGCCGGCUGGGCAACAUUCCGGGGGGACCGUCCCCUCGGAAAUGGCGAAUGGGACCCA [A51G U69A] — higher, 1.11
- GGCCGGCAUGGUCCCAGCCUCCUUGCUGGCGCCGGCUGGGCAACAUUCCGGGGGGACCGUCCCCUCGGUAAUGGCGAAUGGGACCCA [C24U A51G] — higher, 0.415
- GGCCGGCAUGGUCCCAGCCUCCUCGCUGGCGCCGGCUGGGCAACAUUCCGAGGGGACCCUCCCCUCGGUAAUGGCGAAAGGGACCCA [G59C U79A] — higher, 0.987
- GGCCGGAAUGGUCCCAGCCUCCUCGCUGGCGCCGGCUGGGCAACAUUCCGAGGGGGCCGUCCCCUCGGUAAUGGCGAAUGGGACCCA [C7A A56G] — higher, 0.399
- GGCCGGCAUGGUCCAAGCCUCCUCGCUGGCGCCGGCUGGGCAACAUUCCGAGGGGACCGUCCCCUCGGUAAUCGCGAAUGGGACCCA [C15A G73C] — higher, 0.249
- GGCUGGCAUGGUCCCAGCCUCCUCGCUGGCGCCGGCUGGGCAACAUUCCGAGGGGACCGUCCCCUCCGUAAUGGCGAAUGGGACCCA [C4U G67C] — higher, 0.739
- GAACGGCAUGGUCCCAGCCUCCUCGCUGGCGCCGGCUGGGCAACAUUCCGAGGGGACCGUCCCCUCGGUAAUGGCGAAUGGGACCCA [G2A C3A] — lower, 0.0478
- GCCCGGCAUGGUCCCAGCCUCCUCGCUGGCGCCGGCUGGGCAACAUUCCGAGGGGACCGUCCCCUCGGUAGUGGCGAAUGGGACCCA [G2C A71G] — lower, 0.021
- GGCCGGCAUGGUCCCAGCCUCCUCGCUGGCGCCGGCUGGGCAACAUUCCGUGGGGACCGUCCCCUCGGUAAUGGCGACUGGGACCCA [A51U A78C] — higher, 0.242
- GGCCGGCAUGGACCCAUCCUCCUCGCUGGCGCCGGCUGGGCAACAUUCCGAGGGGACCGUCCCCUCGGUAAUGGCGAAUGGGACCCA [U12A G17U] — lower, 0.108
- GGCCGGCAUGGUCCCAGCCUCCUCGCUGGCGCCGGCUGGGCAACAUUCCGAGGGGACCGUCCCCUCGGUCAUGCCGAAUGGGACCCA [A70C G74C] — higher, 0.262
- GGCCGGCAUGGUCCCAGCCUCCUCGCUGGCGCCGGCAGGGCAACAUUCCGAGGGGACCGUCCCCUCGGUAAUGGGGAAUGGGACCCA [U37A C75G] — lower, 0.0852
- GGCCGGCAUGGUCCCAGCCUCCUCGCUGGCGCCGGCUGGGCAACAUUCCGCGGGGACCGUCCCCUCGGUAAUGGCGAAUGGGACCCA [A51C] — higher, 0.972
- GGCCGGCAUGGUCCCAGCCUCCCCGCUGGCGCCGGCUGGGAAACAUUCCGAGGGGACCGUCCCCUCGGUAAUGGCGAAUGGGACCCA [U23C C41A] — higher, 0.789
- GGCCGGCAUGGUCCCAGCCUCCUCGCUGGCGCCGGCUGGGCAACAUUCCGAGUGGACCGUCCCCUCGGUAAUUGCGAAUGGGACCCA [G53U G73U] — higher, 0.472
